System: CC1(C)[C@@H](O[C@H]2O[C@H](C(=O)O)[C@@H](O)[C@H](O)[C@H]2O[C@@H]2O[C@H](C(=O)O)[C@@H](O)[C@H](O)[C@H]2O)CC[C@]2(C)[C@H]3C(=O)C=C4[C@@H]5C[C@@](C)(C(=O)O)CC[C@]5(C)CC[C@@]4(C)[C@]3(C)CC[C@@H]12
Assay: purified protein
Conditions: GL 0.375 to 4 mM, assay pH and temperature not stated for kinetics (optimum pH 6.6, 55 °C)

Substance: AtGUS-E (AtGUS) (Aspergillus terreus NIH2624)
- Km: 12.9 mM
- Vmax: 1.84 µmol/min/mg
- kcat: 29 s⁻¹
- kcat/Km: 2240 M⁻¹ s⁻¹
